According to patent publication US20080160035A1 (Regeneron, published 2008):

T1: mouse IL-4R (mouse, UniProt P16382 26-233, limits assumed)
T1 sequence (looked up): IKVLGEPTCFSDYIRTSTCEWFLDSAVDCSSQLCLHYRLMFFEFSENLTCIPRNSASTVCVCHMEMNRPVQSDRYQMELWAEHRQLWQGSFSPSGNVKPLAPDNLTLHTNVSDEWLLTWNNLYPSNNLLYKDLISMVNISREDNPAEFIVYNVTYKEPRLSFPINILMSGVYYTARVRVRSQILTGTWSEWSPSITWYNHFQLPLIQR

T2: monomeric hIL-4R (R&D Systems) (human, UniProt P24394 26-231)
T2 construct: Bought (R&D Systems); also called hIL-4R monomer
T2 sequence: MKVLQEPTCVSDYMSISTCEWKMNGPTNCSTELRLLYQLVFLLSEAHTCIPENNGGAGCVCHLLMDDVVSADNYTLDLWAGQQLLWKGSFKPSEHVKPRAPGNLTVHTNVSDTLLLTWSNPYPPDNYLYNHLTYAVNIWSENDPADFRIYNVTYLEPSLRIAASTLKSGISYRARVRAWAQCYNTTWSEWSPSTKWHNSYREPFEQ

T3: dimeric hIL-4R-hFc (human, UniProt P24394 26-232)
T3 construct: also called hIL-4R-Fc; not shown: human Fc (hFc)
T3 sequence: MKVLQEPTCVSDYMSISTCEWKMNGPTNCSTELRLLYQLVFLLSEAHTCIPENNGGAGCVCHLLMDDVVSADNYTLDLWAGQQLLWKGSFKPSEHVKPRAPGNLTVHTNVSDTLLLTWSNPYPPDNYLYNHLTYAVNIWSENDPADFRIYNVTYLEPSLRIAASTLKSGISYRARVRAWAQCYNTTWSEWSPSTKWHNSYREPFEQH

T4: hIL-4R on cells (STAT6-transfected HEK293, TF1, TF1/A12) (human, UniProt P24394 26-825)
T4 sequence (looked up): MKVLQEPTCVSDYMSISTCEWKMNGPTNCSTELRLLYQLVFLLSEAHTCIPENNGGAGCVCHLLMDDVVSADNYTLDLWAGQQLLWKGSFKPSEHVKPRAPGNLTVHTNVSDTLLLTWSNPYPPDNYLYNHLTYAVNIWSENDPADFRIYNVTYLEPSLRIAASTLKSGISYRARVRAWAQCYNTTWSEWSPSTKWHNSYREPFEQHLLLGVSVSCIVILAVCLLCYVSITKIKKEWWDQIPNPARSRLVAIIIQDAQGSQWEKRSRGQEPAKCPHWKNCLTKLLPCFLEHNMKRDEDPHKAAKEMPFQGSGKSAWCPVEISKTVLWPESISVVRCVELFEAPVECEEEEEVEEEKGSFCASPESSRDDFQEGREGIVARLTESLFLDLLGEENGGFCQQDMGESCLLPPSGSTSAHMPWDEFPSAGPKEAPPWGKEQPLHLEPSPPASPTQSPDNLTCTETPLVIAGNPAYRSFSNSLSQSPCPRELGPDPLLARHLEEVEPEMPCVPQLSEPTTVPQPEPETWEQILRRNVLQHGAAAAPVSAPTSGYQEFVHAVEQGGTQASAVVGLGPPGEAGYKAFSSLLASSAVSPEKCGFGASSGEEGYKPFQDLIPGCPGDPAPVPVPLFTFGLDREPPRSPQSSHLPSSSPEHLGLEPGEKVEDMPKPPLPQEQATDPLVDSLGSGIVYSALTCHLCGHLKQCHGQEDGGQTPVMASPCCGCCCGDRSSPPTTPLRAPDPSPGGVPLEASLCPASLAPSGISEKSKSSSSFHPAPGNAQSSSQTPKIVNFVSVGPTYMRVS


Columns and labels:
mouse IL-4R = target: T1, mouse IL-4R; assay: binding affinity test of Example 2 (method not restated)
[1] = target: T2, monomeric hIL-4R (R&D Systems); assay: SPR (BIAcore 2000); antibody captured, monomeric hIL-4R injected
Protocol: (§1) Binding affinity (KD) of selected antibodies with respect to hIL-4R was determined using a real-time biosensor surface plasmon resonance assay (BIAcore™ 2000). Briefly, antibody was captured on a goat anti-mouse (GAM) IgG polyclonal antibody surface created through direct chemical coupling of the GAM IgG to a BIAcore™ chip to form a captured antibody surface. […] Binding of antigen to antibody and dissociation of the bound complex, were monitored in real time. Equilibrium dissociation constants (KD) and dissociation rate constants were ascertained by performing kinetic analysis using BIA evaluation software. BIA evaluation software was also used to calculate the half-life of antigen/antibody complex dissociation (T_{1/2}). […] The binding affinity of anti-hIL-4R antibodies to either mouse or monkey (Macaca fascicularis) IL-4R was also tested.

dimeric hIL-4R-hFc [2] = target: T3, dimeric hIL-4R-hFc; assay: ELISA; antibody titrated against 25 pM hIL-4R-Fc, free receptor caught on hIL-4 plate
Protocol: Concentration of free hIL-4R-Fc (no antibody bound) was determined using a hIL-4R-specific sandwich ELISA. […] After a one-hour incubation at room temperature, the detection plate was washed and plate-bound hIL-4R-hFc was detected using HRP conjugated goat anti-hFc polyclonal antibodies and developed using colorimetric substrates such as BD OptEIA™ (BD Biosciences Pharmingen, San Diego, Calif.). After the reaction was stopped with 1 M phosphoric or sulfuric acid, absorbances at 450 nm were recorded and the data were analyzed using GraphPad™ Prism software.

dimeric hIL-4R-hFc [3] = target: T3, dimeric hIL-4R-hFc; assay: SPR; reduction of hIL-4 (50 nM) binding to captured hIL-4R-hFc after antibody; competitor hIL-4
Text: Purified hIL-4R-hFc molecules were captured by goat anti-human IgG polyclonal antibody immobilized on CM-5 to a density of 260 RU, to prepare a receptor-coated surface.

[4] = target: T4, hIL-4R on cells (STAT6-transfected …); assay: cell-based or functional assay
dimeric hIL-4R-hFc [5] = target: T3, dimeric hIL-4R-hFc; assay: SPR (BIAcore 2000); antibody captured, dimeric hIL-4R-hFc injected
Protocol: as §1

[6] = target: T4, hIL-4R on cells (STAT6-transfected …); assay: cell-based or functional assay; remark: listed apart in the source

Binder | binding result (mouse IL-4R) | Kd [1] | T1/2 monomeric [1] | IC50 (dimeric hIL-4R-hFc [2]) | % Inhibition (BIAcore) (dimeric hIL-4R-hFc [3]) | STAT6 Bioassay IC50 (HEK293 STAT6 luciferase, 10 pM hIL-4) [4] | TF1/A12 Bioassay IC50 (proliferation, 20 pM hIL-4) [4] | Kd (dimeric hIL-4R-hFc [5]) | T1/2 dimeric (dimeric hIL-4R-hFc [5]) | STAT6 Bioassay IC50 (HEK293 STAT6 luciferase, 40 pM hIL-13) [6] | TF1 Bioassay IC50 (proliferation, 50 pM hIL-4) [4] | TF1 Bioassay IC50 (proliferation, 150 pM hIL-13) [6]
VAB 10C1-5 (antibody, V domains shown, Apparently tested with mouse constant region (anti-mouse IgG capture/detection)) VH: QVQLVETGGDLVRPGGSLRLSCTASGFTLSDYYMSWIRQAPGKGLEWVSYIRRSGNTIYYADSVKGRFTISRDNAKNSLYLQMNSLRAEDTAVYYCARGGDWADVWGQGTTVTVSS VL: DIQMTQSPSSLSASVGDRVTITCRASQGISIYLAWFQQKPGKAPKSLIYAASSLQRGVPSKFSGSGSGTDFTLTISSLQPEDFATYYCQQYNSYPYTFGQGTKLEIK | no binding | 4.47 nM | 0.1 h | 0.034 nM | 93% | 1.9 nM | 22.8 nM | 0.051 nM | 6.7 h | 1 nM |  | 
VAB 15C8-17 (antibody, V domains shown, Apparently tested with mouse constant region (anti-mouse IgG capture/detection)) VH: QVQLVESGGGLVQPGGSLRLSCAVSGFTISDHYMSWIRQAPGKGLEWISYISSSGSKIYYADSVKGRFTISRDNAKNSLFLQMNSLRAEDTAVYYCARTRQLVGDYWGQGTLVTVSS VL: DIQLTQSPSFLSASVGDRVTITCWASQGISSYLAWYQQKPGKAPKLLIFAASTLQSGVPSRFSGSGSGTEFTLTISSLQPEDFATYYCQQLNSYPLTFGGGTKVEIR | no binding | 0.82 nM | 0.25 h | 0.029 nM | 97% | 0.32 nM | 4.7 nM | 0.045 nM | 3.6 h | 0.2 nM | 0.44 nM | 2.6 nM
VAB 10G8-19 (antibody, V domains shown, Apparently tested with mouse constant region (anti-mouse IgG capture/detection)) VH: QVQLVQSGAEVKKPGASVKVSCKASRYTFTSYDINWVRQATGQGLEWMGWMNPNSGNTGYAQKFQGRVTMTRNTSTSTAYMELSSLRSEDTAVYYCARVRRFFDYWGQGTLVTVSS VL: DIQLTQSPSFLSASVGDRVTITCWASQGIISYLAWYQQKPGKAPKLLIYAASTLHSGVPSRFSGSGSGTEFTLTISSLQPEDFATYYCHQLKSYPITFGQGTRLEIK | no binding | 11.4 nM | 0.0333 h | 0.018 nM | 85% | 1.8 nM | 12.8 nM | 0.052 nM | 2 h | 0.97 nM |  | 
VAB 16F3-1 (antibody, V domains shown, Apparently tested with mouse constant region (anti-mouse IgG capture/detection)) VH: QVQLVQSGAEVKKPGASVKVSCKASGYTFNSYGISWVRQAPGQGLEWMGWIRTYNGNTNYAQKLQGRVTMTTDTSTSTAYMELRSLRSDDTAVYYCARDEARIVVAGTTPYYYGMDVWGQGTTVTVSS VL: DIQMTQSPSSVSASVGDRVTITCRASQDISIWLAWYQQSPGKAPKLLINVASRLQSGVPSRFSGSGSGTDFTLTINSLQPEDFVTYYCQQANSFPITFGQGTRLATK | no binding | 0.02 nM | 4.23 h | 0.019 nM | 97% | 0.032 nM | 0.067 nM | 0.003 nM | 41 h | 0.018 nM | 0.046 nM | 0.079 nM
VX 3F7-6 (antibody, V domains shown, 395/397; 399/401 without saying which was assayed; Apparently tested with mouse constant region (anti-mouse IgG capture/detection)) VH: EVQLVESGGGLVQPGGSLRLSCAASGFTFSSFWMTWVRQAPGKGLEWVANIKQDGSEKYYVDSVKGRFTISRDNAKNSLYLQMNSLRAEDTAVYYCARDPGRTMVRGGIRYYYGMDVWGQGTTVTVSS VL: DIQMTQSPSSVSASVGDRVTISCRASQGVSSWLAWYQQKPGNAPKLLISAASSIQSGVPSRFSGSGSGTDFTLTISSLQPEDFATYYCQQANSFPLTFGGGTKVEIK | no binding | 3.91 nM | 0.267 h | 0.274 nM | 86% | > 10 nM | > 50 nM | 0.654 nM | 2.7 h | > 10 nM |  | 
